Data taken from patent US10925971B2, “Methods of treating PRLR positive breast cancer” (Regeneron Pharmaceuticals, Inc., priority 2016, dated 2021).

Key:
[1] = system: PC3 cells; experiment: In vitro cell viability (cell kill) assay, CCK8; format: cell-based, human
Text: (§1) PRLR-overexpressing cells, including HEK293, PC3, MCF7 and NCI-N87, were generated to assess the ability of anti-PRLR conjugated antibodies to reduce cell viability. For comparative purposes, PC3 and T47D cells with overexpressed ErbB2 were also generated, as well as an MCF7 cell line over-expressing both hPRLR and hErbB2. Briefly, Lipofectamine® 2000-mediated transfection methodology was utilized to generate HEK293 cells expressing human PRLR (HEK293/hPRLR) or human ErbB2 (HEK293/hErbB2). Lipofectamine LTX with Plus Reagent was used to generate PC3 cells expressing human PRLR (PC3/hPRLR) or human ErbB2 (PC3/hErbB2). Lentiviral-mediated transduction was utilized to generate MCF7 cells expressing human PRLR (MCF7/hPRLR), NCI-N87 cells expressing human PRLR (NCI-N87/hPRLR), T47D cells over-expressing human ErbB2 (T47D/hErbB2), and MCF7 cells expressing both human PRLR and human ErbB2 (MCF7/hPRLR/hErbB2). All lines were selected for at least two weeks in complete growth media plus appropriate selection reagents. Stably expressing populations were enriched for PRLR expression via FACS using the anti PRLR antibody Control I.
(§2) Next, the ability of anti-PRLR-DM1 antibody-drug conjugates (i.e., anti-PRLR antibodies conjugated to DM1 via a non-cleavable linker [SMCC]) to reduce cell viability was determined using in vitro cell based assays. Cells were seeded in PDL-coated 96 well plates at 1500 to 10000 cells per well in complete growth media and allowed to grow overnight. For cell viability curves, ADCs or free DM1 (as the methyl disulfide derivative DM1-SMe) were added to the cells at final concentrations ranging from 500 nM to 5 pM and incubated for 3 days. The 293, PC3 and T47D cells were incubated with CCK8 (Dojindo, Rockville, Md.) for the final 1-3 hours and the absorbance at 450 nm (OD450) was determined on a Flexstation3 (Molecular Devices, Sunnyvale, Calif.). MCF7 cells were treated with Hoechst 33342 nuclear stain while being fixed with 4% formaldehyde. Images were acquired on the ImageXpress micro XL (Molecular Devices, Sunnyvale, Calif.) and nuclear counts were determined via Columbus image analysis software (Perkin Elmer, Shelton, Conn.). Background OD450 values (PC3, 293, and T47D) or nuclear counts (MCF7) from digitonin (40 nM) treated cells was subtracted from all wells and viability was expressed as a percentage of the untreated controls. IC50 values were determined from a four-parameter logistic equation over a 10-point response curve (GraphPad Prism).

[2] = system: HEK293 (293) cells; experiment: In vitro cell viability (cell kill) assay, CCK8; format: cell-based, human; details: 293
Text: as §1, §2

[3] = system: MCF7/PRLR tumors; experiment: MCF7/PRLR breast cancer xenograft, tumor size and tumor growth inhibition; format: in vivo, NCr nude mice; details: for Average Tumor Growth Inhibition (%) / Final Tumor size mm^3 (mean ± SEM): MCF7/PRLR tumors TRIAL #1, NCr Nude mice, Day 52
Text: (§3) Briefly, 20×10^6 MCF7/PRLR cells (ATCC HTB-22 transfected with full length hPRLR as previously described) were implanted subcutaneously into the left mammary fat pad of female NCr nude mice. In other studies, 10×10^6 PC3/PRLR (ATCC CRL-1435 transfected with full length hPRLR as previously described) were implanted subcutaneously into the left flank of male SCID mice. Additionally, 10×10^6 parental T47D (ATCC HTB-133) or 7.5×10^10 T47D #11 cells (ATCC HTB-133 serially passaged in vivo as described below) were subcutaneously implanted into the left flank of female CB17 SCID mice. All mice were obtained from Taconic (Hudson, N.Y.). Each bolus of cells was supplemented with a 90-day estrogen release pellet (1.7 mg/pellet; Innovative Research America, Sarasota Fla.). […] Control reagents included PBS vehicle, free methyl-disulfide DM1 (DM1-SMe) and isotype Control 1-DM1.
(§4) In multi-dose studies, mice were dosed once a week for a total of three weeks with tumor volumes and body weights being monitored twice weekly throughout the study. Test ADCs were dosed at 5 and/or 15 mg/kg in the multi-dose studies. In single-dose studies, mice received a single dose of test ADC, and tumor volumes and body weights were monitored twice weekly throughout the study. Test ADCs were dosed at 1, 2.5, 5, and 15 mg/kg in the single-dose studies. Average tumor size as well as tumor growth inhibition relative to the vehicle treated group were calculated for each group. Tumors were measured with calipers twice a week until the average size of the vehicle group reached 1000 mm^3. Tumor size was calculated using the formula (length×width^2)/2. Tumor growth inhibition was calculated according to the following formula: (1−((Tfinal−Tinitial)/(Cfinal−Cinitial)))*100, where T (treated group) and C (control group) represent the mean tumor mass on the day the vehicle group reached 1000 mm^3. […] Results are summarized in Tables 21-25 (multi-dose) and Table 26 (single dose). (NT=not tested in the particular experiment shown).

[4] = system: PC3/PRLR tumors; experiment: PC3/PRLR xenograft, tumor size and tumor growth inhibition; format: in vivo, SCID mice
Text: as §3, §4

[5] = PC3/PRLR tumors TRIAL #1, SCID mice, multi-dose 5 mg/kg, Day 63

B1: H1H6762P-DM1 (conjugate)
VH: QVQLVESGGGVVQPGRSLRLSCAASGFTFSHYGMVWVRQPPGKGLEWVALISFDGTTKYYADSVKGRFTISRDNSKNTLYLQMNSLRAEDTAVYFCVGAIAAAAFDLWGRGTLVTVSS
VL: EIVMTQSPATLSVSPGERATLSCRASQSVSSDLAWYQQKPGQAPRLLIYSASARATGIPARFTGSGSGTDFTLTISSLQSEDFAVYYCQQYNNWPMYTFGQGTKLEIK
Which “% Kill” value ([1]; Table 11, 3 days) does the source give for B1 here?
Its value is 78%.

What about the IC50 ([1]; Table 11, 3 days) of the same molecule?
Its IC50 is 250 nM.

And the “% Kill” value ([2]; Table 11, 3 days)?
The value was 89%.

B2: H1H6800P-DM1 (conjugate)
VH: EVQLVESGGGLVQPGRSLRLSCAASGFTFDGYAMHWVRQGPGKGLEWVSGISWYSDTLGYADSVKGRFTISRDNAKNSLYLQMNSLRTEDTAFYYCAKISSSGWAFDYWGQGTLVTVSS
VL: EIVLTQSPGTLSLSPGERATLSCRASHSVSSAYLAWYQQKPGQTPRLLIYGTSSRATGIPDRFSGSGSGTDFTLTISRLEPEDFAVYYCQQYGSSPLFTFGPGTKVDIK
Which “% Kill” value ([1]; Table 11, 3 days) does the source give for B2 here?
Its value is 72%.

B3: H1H6975N-DM1 (conjugate)
VH: EVHLVESGGGLVQPGGSLRLSCAASGFTFSSYEMNWVRQTPGKGLEWISHISSRSVIIYYADSVKGRFTISRDNAKNSLFLQMNSLRAEDTAVYFCAGITIFGIPEYWGQGTLVTVSS
VL: EIVLTQSPATLSLSPGERATLSCRASQSVSSYFAWYQQKPGQAPRLLIYDASSRATGIPTRFSGSGSGTDFTLTISSLEPEDFAVYYCQQRSSWPITFGQGTRLEIK
Which results are given for B3?
Average Tumor Growth Inhibition (%) ([3]; multi-dose 5 mg/kg): 118%; Final Tumor size mm^3 (mean ± SEM) ([3]; multi-dose 5 mg/kg): 125 ± 46 mm^3; Average Tumor Growth Inhibition (%) ([3]; multi-dose 15 mg/kg): 135%; Final Tumor size mm^3 (mean ± SEM) ([3]; multi-dose 15 mg/kg): 0 ± 0 mm^3; MCF7/PRLR tumor growth ([3]; first multi-dose trial, 5 and 15 mg/kg): potently inhibited MCF7/PRLR tumor growth; Average Tumor Growth Inhibition (%) [4, 5]: 31%; Final Tumor size mm^3 (mean ± SEM) [4, 5]: 973 ± 169 mm^3; Final Tumor size mm^3 (mean ± SEM) ([4]; PC3/PRLR tumors TRIAL #1, SCID mice, multi-dose 15 mg/kg, Day 63): 895 ± 63 mm^3; PC3/PRLR tumor growth ([4]; multi-dose, especially at 15 mg/kg): demonstrated inhibition of tumor growth; % Kill ([1]; Table 11, 3 days): 71%

B4: H1H6975P-mc-VC-PAB-MMD (conjugate)
VH: B3 VH
VL: B3 VL
How did the IC50 ([2]; Table 19) turn out when B4 was run?
Its IC50 is 110 nM.

B5: H1H6793P-DM1 (conjugate)
VH: EVQLVESGGGLVQPGGSLRLSCAASGFSFSIYAMSWFRQAPGKGLEWVSAINGRGDGTHYADSVKGRFTISRDNSKTTLYLQMSSLRAEDTAVYYCAKPVMSTNGFDIWGQGTMVTVSS
VL: DIQMTQSPSTLSASVGDRVTITCRASQSISSWLAWYQLKPGKAPKLLIYKASNLESGVPSRFSGSGSGTEFTLTISSLQPDDFATYYCQQYNIYWTFGQGTKVEIK
B5 was tested. Which “% Kill” value ([1]; Table 11, 3 days) did it give?
Its value is 72%.

And the IC50 ([1]; Table 11, 3 days)?
The IC50 was 200 nM.

And the “% Kill” value ([2]; Table 11, 3 days)?
Its value is 84%.

What about the IC50 ([2]; Table 11, 3 days) of the same molecule?
The IC50 was 100 nM.

B6: H1H6765P-SMCC-DM1 (conjugate)
VH: EVQLVESGGGVVRPGGSLRLSCVGSGFSFDDHGMNWVRQGPGKGLEWVSGFNWNGGSTNYAESVKGRFTISRDNARNSLFLQMNSLRAEDTALYYCVRGRSGWFNDAFDVWGPGTMVTVSS
VL: EIVLTQSPGTLSLSPGERATLSCRASQTINSNYLAWYRQKPGQTPRLLIYGTSSRATGIPDRFSGSGSGTDFSLTISRLEPEDFAVFYCQQYAGLPTFGPGTKVDIK
Which “% Kill” value ([1]; Table 18) does the source give for B6 here?
Its value is 80%.

And the IC50 ([1]; Table 18)?
Its IC50 is 80 nM.

B7: H1H6765P-mc-VC-PAB-MMAE (conjugate)
VH: B6 VH
VL: B6 VL
B7 was tested. Which “% Kill” value ([1]; Table 18) did it give?
The value was 29%.

B8: H1H6953N-SMCC-DM1 (conjugate)
VH: EVQLLESGGGLVQPGGTLRLSCAASGFTFSAYAMSWVRQAPGKGLEWVSSINVRAGDTYYADSVKGRFTISRDNSKNTLFLLMNSLRAEDTAAYYCAKARYSSNWGFDFWGQGTLVTVSS
VL: DIVMTQSPDSLTVSLGARTTINCQSSQTILHSSNNHNYLAWYQQKPGLPPKLLIYWSSTRESGVPDRFSGSGSGTDFTLTISSLQAEDVAIYYCQQYSNTPYTFGQGTKLEIN
B8 was tested. Which “% Kill” value ([1]; Table 18) did it give?
Its value is 81%.

B9: H1H6953N-mc-VC-PAB-MMD (conjugate)
VH: B8 VH
VL: B8 VL
How did the IC50 ([2]; Table 19) turn out when B9 was run?
The IC50 was 110 nM.

B10: H1H6953N-mc-VC-PAB-MMAE (conjugate)
VH: B8 VH
VL: B8 VL
What does the source list for B10?
% Kill ([1]; Table 18): 49%; IC50 ([1]; Table 18): 130 nM

B11: H1H6953N-mc-VC-PAB-MeNHC3-May (conjugate)
VH: B8 VH
VL: B8 VL
How did the “% Kill” value ([2]; Table 19) turn out when B11 was run?
The value was 20%.

B12: H1H6782P-mc-VC-PAB-MMD (conjugate)
VH: EVQLVESGGGLVQPGRSLRLSCAASGFTFDDYAMHWVRQAPGKGLEWVSGIIWNSGHIGYGDSVKGRFTISRDNAKKSLYLQMNSLRAEDTALYYCARDSGRYQSYFDYWGQGTLVTVSS
VL: DIQMTQSPSTLSASVGDRVTITCRASHIISSWLAWYQQKPGKAPKVLIFKASSLESGVPSRFSGSGSGTEFTLTISSLQPDDFATYYCQQYNTYSRTFGQGTKVEIK
For B12, which IC50 ([2]; Table 19) is on record?
Its IC50 is 230 nM.

B13: H1H6782P-mc-VC-PAB-MeNHC3-May (conjugate)
VH: B12 VH
VL: B12 VL
B13 was tested. Which IC50 ([2]; Table 19) did it give?
The IC50 was 60 nM.

B14: H1H6960N-DM1 (conjugate)
VH: EVQLVESGGGLVKPGGSLRLSCAASGITFSSYSMNWVRQAPGKGLEWVSSISTRSSLIHYADSVKGRFTISRDNAKNSLYLQMNSLRDEDTAVYYCARWDAAAAFDYWGQGTLVIVSS
VL: DIQLTQSPSFLSASVGDRVTITCWASQGISSYLAWYQQKPGKAPKLLIYVASTLQSGVPSRFSGSGSGTEFTLTISSLQPEDFATYFCQQLNSYPLTFGGGTKVEIK
Which results are given for B14?
% Kill ([1]; Table 11, 3 days): 80%; IC50 ([1]; Table 11, 3 days): 150 nM; IC50 ([2]; Table 11, 3 days): 75 nM
